Test results from PMC2648068 (Journal of immunology (Baltimore, Md. : 1950), 2009).

How the values were obtained:
Experiment in all cases: ELISA
recombinant human TLR2 = recombinant human TLR2 (human, UniProt O60603 21-588)
recombinant mouse TLR2 = molecular target: T1, recombinant mouse TLR2 (mouse, UniProt Q9QUN7 25-587)
T1 sequence (looked up): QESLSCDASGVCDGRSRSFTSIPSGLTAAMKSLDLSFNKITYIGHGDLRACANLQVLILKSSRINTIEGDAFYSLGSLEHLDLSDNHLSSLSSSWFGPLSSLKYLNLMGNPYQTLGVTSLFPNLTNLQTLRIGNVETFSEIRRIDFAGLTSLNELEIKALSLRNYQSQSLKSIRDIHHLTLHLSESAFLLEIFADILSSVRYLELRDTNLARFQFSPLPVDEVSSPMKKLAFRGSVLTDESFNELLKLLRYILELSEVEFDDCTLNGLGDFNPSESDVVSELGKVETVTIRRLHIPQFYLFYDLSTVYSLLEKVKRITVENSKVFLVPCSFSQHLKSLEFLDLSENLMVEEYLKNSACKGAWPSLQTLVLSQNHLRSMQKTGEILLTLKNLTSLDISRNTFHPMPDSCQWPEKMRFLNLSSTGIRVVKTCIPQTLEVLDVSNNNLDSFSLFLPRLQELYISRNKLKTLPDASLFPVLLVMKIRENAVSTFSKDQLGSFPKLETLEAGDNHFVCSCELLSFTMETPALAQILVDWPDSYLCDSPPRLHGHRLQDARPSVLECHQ

recombinant mouse TLR1 = molecular target: T2, recombinant mouse TLR1 (mouse, UniProt Q9EPQ1 26-582)
T2 sequence (looked up): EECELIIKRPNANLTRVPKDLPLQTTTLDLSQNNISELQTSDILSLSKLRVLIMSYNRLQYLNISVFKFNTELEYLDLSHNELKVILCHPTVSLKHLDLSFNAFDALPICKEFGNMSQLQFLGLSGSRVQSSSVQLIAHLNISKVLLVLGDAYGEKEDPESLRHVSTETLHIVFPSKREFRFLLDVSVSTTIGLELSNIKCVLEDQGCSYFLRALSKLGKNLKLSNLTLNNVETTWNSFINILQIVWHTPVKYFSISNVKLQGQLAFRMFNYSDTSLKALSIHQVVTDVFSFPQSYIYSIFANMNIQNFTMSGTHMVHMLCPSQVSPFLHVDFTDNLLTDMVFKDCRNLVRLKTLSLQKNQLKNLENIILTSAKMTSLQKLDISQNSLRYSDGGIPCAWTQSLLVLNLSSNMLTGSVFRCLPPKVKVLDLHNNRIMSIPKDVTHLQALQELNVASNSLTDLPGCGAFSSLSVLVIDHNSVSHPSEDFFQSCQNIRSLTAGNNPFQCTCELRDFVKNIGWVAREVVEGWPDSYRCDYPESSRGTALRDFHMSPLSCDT

recombinant human TLR1 = molecular target: T3, recombinant human TLR1 (human, UniProt Q15399 25-580)
T3 sequence (looked up): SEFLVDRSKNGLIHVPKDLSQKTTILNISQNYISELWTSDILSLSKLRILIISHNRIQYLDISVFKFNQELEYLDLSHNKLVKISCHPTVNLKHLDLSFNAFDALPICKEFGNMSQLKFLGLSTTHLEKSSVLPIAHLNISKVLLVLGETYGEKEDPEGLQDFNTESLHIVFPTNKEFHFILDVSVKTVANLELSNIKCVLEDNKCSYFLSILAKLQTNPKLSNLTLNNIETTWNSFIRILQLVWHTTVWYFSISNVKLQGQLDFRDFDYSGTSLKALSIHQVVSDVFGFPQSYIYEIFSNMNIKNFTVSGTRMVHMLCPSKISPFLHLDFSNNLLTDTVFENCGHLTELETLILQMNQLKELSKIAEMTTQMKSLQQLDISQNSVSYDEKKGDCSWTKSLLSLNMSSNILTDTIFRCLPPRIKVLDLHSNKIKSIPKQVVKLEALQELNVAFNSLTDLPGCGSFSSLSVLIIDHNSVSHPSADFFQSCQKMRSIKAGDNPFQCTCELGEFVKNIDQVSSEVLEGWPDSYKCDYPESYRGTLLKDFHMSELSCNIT

Measured: binding result

Chain of recombinant human TLR2 (O60603 21-588): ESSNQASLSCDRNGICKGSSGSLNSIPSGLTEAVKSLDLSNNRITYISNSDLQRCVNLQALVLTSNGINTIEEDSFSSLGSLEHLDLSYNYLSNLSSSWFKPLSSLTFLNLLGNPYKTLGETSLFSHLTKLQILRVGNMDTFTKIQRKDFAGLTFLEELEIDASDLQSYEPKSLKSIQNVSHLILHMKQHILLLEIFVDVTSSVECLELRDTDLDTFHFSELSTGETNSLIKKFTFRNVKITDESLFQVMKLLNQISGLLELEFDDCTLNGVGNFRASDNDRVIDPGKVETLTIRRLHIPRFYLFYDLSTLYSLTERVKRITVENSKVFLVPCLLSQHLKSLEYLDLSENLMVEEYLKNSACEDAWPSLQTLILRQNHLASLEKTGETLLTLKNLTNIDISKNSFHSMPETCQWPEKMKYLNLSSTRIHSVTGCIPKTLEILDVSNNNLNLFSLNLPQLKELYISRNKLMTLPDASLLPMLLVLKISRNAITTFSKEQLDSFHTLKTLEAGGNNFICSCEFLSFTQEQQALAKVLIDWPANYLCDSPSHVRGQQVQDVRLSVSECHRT

B1: LT-IIb-B5, pentameric B subunit of type IIb E. coli enterotoxin (wild-type) (natural protein)
chain: GASQFFKDNCNRTTASLVEGVELTKYISDINNNTDGMYVVSSTGGVWRISRAKDYPDNVMTAEMRKIAMAAVLSGMRVNMCASPASSPNVIWAIELEAE
binds: recombinant human TLR2 | recombinant mouse TLR2 | recombinant mouse TLR1 | recombinant human TLR1
